Reference: patent US20220363766A1, “COMPOSITIONS AND METHODS FOR TREATING CYTOTOXIC T CELL RESISTANT TUMORS” (Dana-Farber Cancer Institute, Inc., priority 2019, published 2022)
“Also recorded” adds a separate entry of the source.

B1: 7C6-hIgG1: MICA/B α3 domain specific mAb, clone 7C6 with human IgG1 Fc (antibody, V domains shown)
VH: QIQLVQSGPELKKPGETVKVSCKASGYMFTNYAMNWVKQAPEKGLKWMGWINTHTGDPTYADDFKGRIAFSLETSASTAYLQINNLKNEDTATYFCVRTYGNYAMDYWGQGTSVTVSS
VL: DIQMTQTTSSLSASLGDRVTISCSASQDISNYLNWYQQKPDGTVKLLIYDTSILHLGVPSRFSGSGSGTDYSLTISNLEPEDIATYYCQQYSKFPRTFGGGTTLEIK

Legend:
human NK cells = test: Characterization of human NK cells in tumor-free NSG mice; format: in vivo; conditions: 10 mg/kg, 24 hours later, blood
Method: Tumor-free NSG mice were inoculated intravenously with 2×10^6 human NK cells that were expanded in vitro as described above. At the same time, mice also received intraperitoneal injections of IL-2 (7.5×10^4) as well as panobinostat (10 mg/kg) or PBS as the solvent control. One day later, blood was collected via eye bleeding, and human NK cells were analyzed by flow cytometry.
Tumor-free NSG mice were inoculated intravenously with 2×10^6 human NK cells that were expanded in vitro as described above. At the same time, mice also received intraperitoneal injections of IL-2 (7.5×10^4, Peprotech) as well as panobinostat (10 mg/kg) or PBS as the solvent control. One day later, blood was collected via eye bleeding, and human NK cells were analyzed by flow cytometry.

MICA/B = MICA/B shedding assays in A375 melanoma cells (shed MICA ELISA, MICA/B surface levels by flow cytometry); format: cell-based; conditions: control and B2M-KO A375 cells, 24 hours, vs isotype control
Method: 5×10^4 tumor cells were cultured for 24 hours in 96-wells plates (flat-bottom for adherent cells or U-bottom for suspension cells) in the presence of different concentrations of antibodies, IFNγ, and/or panobinostat (ApexBio, catalog number A8178), as indicated in each figure. Following a 24-hour culture period, plates were centrifuged for 5 minutes at 500× g, and supernatants were collected for analysis of shed MICA using the Human MICA ELISA Kit (Abcam, catalog number ab59569).
Adherent cells were detached with Versene (Gibco, catalog number 15040-066) to preserve the integrity of MICA/B proteins on the cell surface. Fc receptors were blocked using Human TruStain FcX™ (Biolegend, catalog number 422302), and cells were stained with PE or APC-conjugated anti-human MICA/B clone 6D4 (Biolegend, catalog numbers 320906 or 320908, respectively). […] Data were acquired using a BD Fortessa X20 or Beckman Coulter CytoFLEX LX, and analyses were performed using FlowJo V10 software.
5×10^4 tumor cells were cultured for 24 hours in 96-wells plates (flat-bottom for adherent cells or U-bottom for suspension cells) in the presence of different concentrations of antibodies, IFNγ, and/or panobinostat (ApexBio, catalog number A8178), as indicated in each figure. […]

A375 melanoma cells = test: Long-term NK cell-mediated killing assay (image cytometry of GFP+ tumor cells); format: cell-based; conditions: mAb 20 μg/ml pretreatment 24 hours, human NK cells, IL-2 300 U/ml, 72-hour period
Method: (§1) For long-term NK cell-mediated killing assays, GFP^+ control and B2M-KO A375 cells were pretreated for 24 hours with MICA/B or isotype control mAbs (20 μg/ml) in tissue culture media. Subsequently, tumor cells were detached with Versene, washed with PBS, and plated in black-wall 96-well plates (Corning™, catalog number 3603) at a density of 5×10^3 cells per well. Human NK cells were added 1-2 hours later at different effector to target ratios as indicated in the figures, and IL-2 (300 U/ml) was added to support NK cell survival. The number of GFP^+ tumor cells was tracked over time using a Celigo Image Cytometer (Nexcelom Bioscience, Lawrence, USA), as reported previously.^40
as §1, with “U/ml, BD Biosciences)” for “U/ml)”, “previously (33).” for “previously.^40”

Molecule	impact on human NK cells transferred to NSG mice (circulating NK cells, CD16a or NKG2D positive NK cells) (human NK cells)	MICA shedding (shed MICA, sandwich ELISA) (MICA/B)	surface levels of MICA/B (flow cytometry) (MICA/B)	efficacy in NK cell-mediated killing, B2M-KO vs control A375 cells (A375 melanoma cells)
Cc1[nH]c2ccccc2c1CCNCc1ccc(/C=C/C(=O)NO)cc1 [panobinostat]	did not negatively impact human NK cells; also recorded: did not inhibit reconstitution of NSG mice with human NK cells	–	–	–
B1	–	inhibited MICA shedding	increased surface levels of MICA/B	substantially more effective against B2M-KO compared to control A375 melanoma cells
